Assay results taken from IntAct's records for PubMed 18223036.

B1: Protein pleiotropic regulatory locus 1 (Arabidopsis thaliana (Mouse-ear cress)), Q42384 (parent)
chain: MPAPTTEIEPIEAQSLKKLSLKSLKRSLELFSPVHGQFPPPDPEAKQIRLSHKMKVAFGGVEPVVSQPPRQPDRINEQPGPSNALSLAAPEGSKSTQKGATESAIVVGPTLLRPILPKGLNYTGSSGKSTTIIPANVSSYQRNLSTAALMERIPSRWPRPEWHAPWKNYRVIQGHLGWVRSVAFDPSNEWFCTGSADRTIKIWDVATGVLKLTLTGHIEQVRGLAVSNRHTYMFSAGDDKQVKCWDLEQNKVIRSYHGHLSGVYCLALHPTLDVLLTGGRDSVCRVWDIRTKMQIFALSGHDNTVCSVFTRPTDPQVVTGSHDTTIKFWDLRYGKTMSTLTHHKKSVRAMTLHPKENAFASASADNTKKFSLPKGEFCHNMLSQQKTIINAMAVNEDGVMVTGGDNGSIWFWDWKSGHSFQQSETIVQPGSLESEAGIYAACYDNTGSRLVTCEADKTIKMWKEDENATPETHPINFKPPKEIRRF
partner: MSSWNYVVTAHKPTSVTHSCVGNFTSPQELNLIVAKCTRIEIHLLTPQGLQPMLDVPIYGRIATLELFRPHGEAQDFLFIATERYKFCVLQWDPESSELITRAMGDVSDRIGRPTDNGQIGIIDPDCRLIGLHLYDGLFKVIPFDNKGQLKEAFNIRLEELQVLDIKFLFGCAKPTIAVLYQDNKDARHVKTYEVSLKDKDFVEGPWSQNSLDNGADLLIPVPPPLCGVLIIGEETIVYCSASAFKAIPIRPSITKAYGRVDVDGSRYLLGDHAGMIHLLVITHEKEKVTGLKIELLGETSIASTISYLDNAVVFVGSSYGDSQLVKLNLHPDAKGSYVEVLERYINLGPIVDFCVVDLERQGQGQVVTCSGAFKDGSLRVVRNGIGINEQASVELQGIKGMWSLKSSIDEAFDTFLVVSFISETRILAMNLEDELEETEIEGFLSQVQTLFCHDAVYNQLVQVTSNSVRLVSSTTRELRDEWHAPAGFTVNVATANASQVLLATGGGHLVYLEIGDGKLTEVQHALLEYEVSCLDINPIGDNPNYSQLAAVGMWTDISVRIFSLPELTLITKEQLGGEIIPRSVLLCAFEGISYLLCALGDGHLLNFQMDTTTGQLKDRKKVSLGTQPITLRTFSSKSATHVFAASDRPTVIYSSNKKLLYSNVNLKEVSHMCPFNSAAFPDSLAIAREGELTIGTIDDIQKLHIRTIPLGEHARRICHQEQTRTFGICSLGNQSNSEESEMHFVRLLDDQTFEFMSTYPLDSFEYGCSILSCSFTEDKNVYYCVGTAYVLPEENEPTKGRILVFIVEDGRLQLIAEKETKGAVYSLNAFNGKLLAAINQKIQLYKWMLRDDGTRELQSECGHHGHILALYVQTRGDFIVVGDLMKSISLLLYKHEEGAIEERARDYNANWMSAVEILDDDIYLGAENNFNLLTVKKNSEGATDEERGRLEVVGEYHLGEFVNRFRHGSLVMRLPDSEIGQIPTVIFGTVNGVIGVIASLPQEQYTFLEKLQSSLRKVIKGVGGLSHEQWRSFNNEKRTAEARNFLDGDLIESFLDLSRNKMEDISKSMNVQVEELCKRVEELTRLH

Variants of: B1
Details: with ddb1a_arath DDB1A

Row | Variant | effect of a mutation on the interaction
1 | MPAPTTEIEPIEAQSLKKLSLKSLKRSLELFSPVHGQFPPPDPEAKQIRLSHKMKVAFGGVEPVVSQPPRQPDRINEQPGPSNALSLAAPEGSKSTQKGATESAIVVGPTLLRPILPKGLNYTGSSGKSTTIIPANVSSYQRNLSTAALMERIPSRWPRPEWHAPWKNYRVIQGHLGWVRSVAFDPSNEWFCTGSADRTIKIWDVATGVLKLTLTGHIEQVRGLAVSNRHTYMFSAGDDKQVKCWDLEQNKVIRSYHGHLSGVYCLALHPTLDVLLTGGRDSVCRVWDIHTKMQIFALSGHDNTVCSVFTRPTDPQVVTGSHDTTIKFWDLHYGKTMSTLTHHKKSVRAMTLHPKENAFASASADNTKKFSLPKGEFCHNMLSQQKTIINAMAVNEDGVMVTGGDNGSIWFWDWKSGHSFQQSETIVQPGSLESEAGIYAACYDNTGSRLVTCEADKTIKMWKEDENATPETHPINFKPPKEIRRF [R290H;R332H] | decreasing interaction
